# Measurements taken from patent US20140274782A1, “AFFINITY REAGENTS AND METHODS FOR DETECTION, PURIFICATION, AND PROTEOMIC ANALYSIS OF METHYLATED PROTEINS” (The Board of Trustees of the Leland Stanford Junior …, priority 2013, published 2014).
# T1: G9a and GLP (Homo sapiens, UniProt Q96KQ7+Q9H9B1)
# T1 sequence (Q96KQ7 2-1210 limits assumed): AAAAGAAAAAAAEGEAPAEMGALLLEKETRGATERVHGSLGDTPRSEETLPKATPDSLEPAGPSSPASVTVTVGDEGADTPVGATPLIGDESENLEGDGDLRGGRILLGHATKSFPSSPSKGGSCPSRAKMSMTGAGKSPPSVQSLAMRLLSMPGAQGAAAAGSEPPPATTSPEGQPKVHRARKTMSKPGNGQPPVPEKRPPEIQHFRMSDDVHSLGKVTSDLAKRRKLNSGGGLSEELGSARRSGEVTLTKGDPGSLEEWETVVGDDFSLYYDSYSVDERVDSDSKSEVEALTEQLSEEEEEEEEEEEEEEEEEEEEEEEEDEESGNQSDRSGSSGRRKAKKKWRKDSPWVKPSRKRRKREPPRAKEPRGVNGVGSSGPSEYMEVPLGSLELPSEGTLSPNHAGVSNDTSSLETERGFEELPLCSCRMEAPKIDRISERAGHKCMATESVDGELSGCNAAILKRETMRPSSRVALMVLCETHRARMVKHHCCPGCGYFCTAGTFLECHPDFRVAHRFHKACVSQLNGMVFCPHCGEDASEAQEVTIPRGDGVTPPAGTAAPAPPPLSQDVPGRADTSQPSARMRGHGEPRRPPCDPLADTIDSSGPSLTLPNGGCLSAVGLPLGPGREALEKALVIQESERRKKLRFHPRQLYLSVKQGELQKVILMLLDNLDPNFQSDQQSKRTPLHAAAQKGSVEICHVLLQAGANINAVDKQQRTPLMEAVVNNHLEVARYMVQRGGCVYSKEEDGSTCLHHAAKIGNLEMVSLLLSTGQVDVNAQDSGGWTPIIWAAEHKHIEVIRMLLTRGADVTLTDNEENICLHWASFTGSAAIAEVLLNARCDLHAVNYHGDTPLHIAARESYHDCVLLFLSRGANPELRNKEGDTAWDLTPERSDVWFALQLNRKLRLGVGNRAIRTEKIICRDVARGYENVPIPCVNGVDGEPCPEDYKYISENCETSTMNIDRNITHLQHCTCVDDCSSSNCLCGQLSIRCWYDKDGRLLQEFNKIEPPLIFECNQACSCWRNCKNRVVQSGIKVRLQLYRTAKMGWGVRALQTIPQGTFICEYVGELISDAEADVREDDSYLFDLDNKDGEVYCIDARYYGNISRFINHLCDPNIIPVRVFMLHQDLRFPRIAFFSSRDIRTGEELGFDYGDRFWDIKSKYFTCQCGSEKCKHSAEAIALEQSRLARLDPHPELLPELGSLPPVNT
# T1 sequence (Q9H9B1 2-1298 limits assumed): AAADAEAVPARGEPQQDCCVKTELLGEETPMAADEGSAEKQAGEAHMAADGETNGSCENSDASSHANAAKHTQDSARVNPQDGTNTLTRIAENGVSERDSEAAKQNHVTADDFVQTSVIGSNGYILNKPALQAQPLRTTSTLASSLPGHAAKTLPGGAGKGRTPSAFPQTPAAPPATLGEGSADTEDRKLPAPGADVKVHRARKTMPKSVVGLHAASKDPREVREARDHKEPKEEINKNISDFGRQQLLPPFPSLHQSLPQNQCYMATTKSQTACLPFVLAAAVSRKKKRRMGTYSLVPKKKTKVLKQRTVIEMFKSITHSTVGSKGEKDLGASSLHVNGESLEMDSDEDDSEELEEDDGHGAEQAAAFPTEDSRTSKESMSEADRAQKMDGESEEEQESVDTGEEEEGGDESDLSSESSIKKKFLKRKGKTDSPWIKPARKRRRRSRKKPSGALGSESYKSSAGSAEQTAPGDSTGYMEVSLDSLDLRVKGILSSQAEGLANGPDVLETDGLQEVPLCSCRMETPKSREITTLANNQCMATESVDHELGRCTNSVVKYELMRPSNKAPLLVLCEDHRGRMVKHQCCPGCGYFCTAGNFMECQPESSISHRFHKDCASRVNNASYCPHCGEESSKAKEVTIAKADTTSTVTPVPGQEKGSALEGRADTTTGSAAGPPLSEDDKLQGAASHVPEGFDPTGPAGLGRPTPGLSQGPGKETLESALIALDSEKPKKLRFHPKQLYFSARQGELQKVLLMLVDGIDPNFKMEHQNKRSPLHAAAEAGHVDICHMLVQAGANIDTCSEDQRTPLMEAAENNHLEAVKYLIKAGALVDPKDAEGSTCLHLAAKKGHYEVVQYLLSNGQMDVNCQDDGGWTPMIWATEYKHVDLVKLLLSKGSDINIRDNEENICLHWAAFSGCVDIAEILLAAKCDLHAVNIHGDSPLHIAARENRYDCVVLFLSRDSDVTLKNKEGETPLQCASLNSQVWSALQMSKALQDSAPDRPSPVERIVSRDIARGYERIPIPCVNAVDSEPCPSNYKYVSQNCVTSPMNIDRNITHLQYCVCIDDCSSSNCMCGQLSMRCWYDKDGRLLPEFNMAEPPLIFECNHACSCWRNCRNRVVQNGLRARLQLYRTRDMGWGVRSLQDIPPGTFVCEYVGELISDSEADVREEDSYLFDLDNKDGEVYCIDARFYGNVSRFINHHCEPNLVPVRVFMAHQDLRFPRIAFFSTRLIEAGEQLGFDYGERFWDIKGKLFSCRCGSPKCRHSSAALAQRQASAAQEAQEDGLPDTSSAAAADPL
# B1: MTHFD1 (protein, UniProt P11586 1-935, looked up)
# C-1-tetrahydrofolate …: MAPAEILNGKEISAQIRARLKNQVTQLKEQVPGFTPRLAILQVGNRDDSNLYINVKLKAAEEIGIKATHIKLPRTTTESEVMKYITSLNEDSTVHGFLVQLPLDSENSINTEEVINAIAPEKDVDGLTSINAGKLARGDLNDCFIPCTPKGCLELIKETGVPIAGRHAVVVGRSKIVGAPMHDLLLWNNATVTTCHSKTAHLDEEVNKGDILVVATGQPEMVKGEWIKPGAIVIDCGINYVPDDKKPNGRKVVGDVAYDEAKERASFITPVPGGVGPMTVAMLMQSTVESAKRFLEKFKPGKWMIQYNNLNLKTPVPSDIDISRSCKPKPIGKLAREIGLLSEEVELYGETKAKVLLSALERLKHRPDGKYVVVTGITPTPLGEGKSTTTIGLVQALGAHLYQNVFACVRQPSQGPTFGIKGGAAGGGYSQVIPMEEFNLHLTGDIHAITAANNLVAAAIDARIFHELTQTDKALFNRLVPSVNGVRRFSDIQIRRLKRLGIEKTDPTTLTDEEINRFARLDIDPETITWQRVLDTNDRFLRKITIGQAPTEKGHTRTAQFDISVASEIMAVLALTTSLEDMRERLGKMVVASSKKGEPVSAEDLGVSGALTVLMKDAIKPNLMQTLEGTPVFVHAGPFANIAHGNSSIIADRIALKLVGPEGFVVTEAGFGADIGMEKFFNIKCRYSGLCPHVVVLVATVRALKMHGGGPTVTAGLPLPKAYIQENLELVEKGFSNLKKQIENARMFGIPVVVAVNAFKTDTESELDLISRLSREHGAFDAVKCTHWAEGGKGALALAQAVQRAAQAPSSFQLLYDLKLPVEDKIRIIAQKIYGADDIELLPEAQHKAEVYTKQGFGNLPICMAKTHLSLSHNPEQKGVPTGFILPIRDIRASVGAGFLYPLVGTMSTMPGLPTRPCFYDIDLDPETEQVNGLF
# B2: TCOF1 (protein, UniProt Q13428 1-1488, looked up)
# Treacle protein: MAEARKRRELLPLIYHHLLRAGYVRAAREVKEQSGQKCFLAQPVTLLDIYTHWQQTSELGRKRKAEEDAALQAKKTRVSDPISTSESSEEEEEAEAETAKATPRLASTNSSVLGADLPSSMKEKAKAETEKAGKTGNSMPHPATGKTVANLLSGKSPRKSAEPSANTTLVSETEEEGSVPAFGAAAKPGMVSAGQADSSSEDTSSSSDETDVEGKPSVKPAQVKASSVSTKESPARKAAPAPGKVGDVTPQVKGGALPPAKRAKKPEEESESSEEGSESEEEAPAGTRSQVKASEKILQVRAASAPAKGTPGKGATPAPPGKAGAVASQTKAGKPEEDSESSSEESSDSEEETPAAKALLQAKASGKTSQVGAASAPAKESPRKGAAPAPPGKTGPAVAKAQAGKREEDSQSSSEESDSEEEAPAQAKPSGKAPQVRAASAPAKESPRKGAAPAPPRKTGPAAAQVQVGKQEEDSRSSSEESDSDREALAAMNAAQVKPLGKSPQVKPASTMGMGPLGKGAGPVPPGKVGPATPSAQVGKWEEDSESSSEESSDSSDGEVPTAVAPAQEKSLGNILQAKPTSSPAKGPPQKAGPVAVQVKAEKPMDNSESSEESSDSADSEEAPAAMTAAQAKPALKIPQTKACPKKTNTTASAKVAPVRVGTQAPRKAGTATSPAGSSPAVAGGTQRPAEDSSSSEESDSEEEKTGLAVTVGQAKSVGKGLQVKAASVPVKGSLGQGTAPVLPGKTGPTVTQVKAEKQEDSESSEEESDSEEAAASPAQVKTSVKKTQAKANPAAARAPSAKGTISAPGKVVTAAAQAKQRSPSKVKPPVRNPQNSTVLARGPASVPSVGKAVATAAQAQTGPEEDSGSSEEESDSEEEAETLAQVKPSGKTHQIRAALAPAKESPRKGAAPTPPGKTGPSAAQAGKQDDSGSSSEESDSDGEAPAAVTSAQVIKPPLIFVDPNRSPAGPAATPAQAQAASTPRKARASESTARSSSSESEDEDVIPATQCLTPGIRTNVVTMPTAHPRIAPKASMAGASSSKESSRISDGKKQEGPATQVSKKNPASLPLTQAALKVLAQKASEAQPPVARTQPSSGVDSAVGTLPATSPQSTSVQAKGTNKLRKPKLPEVQQATKAPESSDDSEDSSDSSSGSEEDGEGPQGAKSAHTLGPTPSRTETLVEETAAESSEDDVVAPSQSLLSGYMTPGLTPANSQASKATPKLDSSPSVSSTLAAKDDPDGKQEAKPQQAAGMLSPKTGGKEAASGTTPQKSRKPKKGAGNPQASTLALQSNITQCLLGQPWPLNEAQVQASVVKVLTELLEQERKKVVDTTKESSRKGWESRKRKLSGDQPAARTPRSKKKKKLGAGEGGEASVSPEKTSTTSKGKAKRDKASGDVKEKKGKGSLGSQGAKDEPEEELQKGMGTVEGGDQSNPKSKKEKKKSDKRKKDKEKKEKKKKAKKASTKDSESPSQKKKKKKKKTAEQTV
# B3: ALKBH5 (protein, UniProt Q6P6C2 2-394, looked up)
# RNA demethylase ALKBH5: AAASGYTDLREKLKSMTSRDNYKAGSREAAAAAAAAVAAAAAAAAAAEPYPVSGAKRKYQEDSDPERSDYEEQQLQKEEEARKVKSGIRQMRLFSQDECAKIEARIDEVVSRAEKGLYNEHTVDRAPLRNKYFFGEGYTYGAQLQKRGPGQERLYPPGDVDEIPEWVHQLVIQKLVEHRVIPEGFVNSAVINDYQPGGCIVSHVDPIHIFERPIVSVSFFSDSALCFGCKFQFKPIRVSEPVLSLPVRRGSVTVLSGYAADEITHCIRPQDIKERRAVIILRKTRLDAPRLETKSLSSSVLPPSYASDRLSGNNRDPALKPKRSHRKADPDAAHRPRILEMDKEENRRSVLLPTHRRRGSFSSENYWRKSYESSEDCSEAAGSPARKVKMRRH
# System: 3×MBT domain of L3MBTL1
# Experiment: Triple SILAC pull-down, 3xMBT/3xMBTD355N ratio (cytoplasmic, nuclear and chromatin fractions of 293T cells);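 also: proteins quantified with MaxQuant, requiring at least two unique peptides and quantification in both label directions, normalized to the mean of proteins from a digested loading control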
# Format: binding, human
# Settings: SILAC ratio, pull-down 3xMBT vs 3xMBTD355N; experiment with UNC0638 in heavy SILAC media
row,Molecule,3xMBT/D355N UNC Heavy
1,B1,1.99 log base 2
2,B2,0.67 log base 2
3,B3,1.96 log base 2

# Same assay, conditions: SILAC ratio, pull-down 3xMBT vs 3xMBTD355N; experiment with UNC0638 in light SILAC media
row,Molecule,3xMBT/D355N UNC Light
1,B1,2.35 log base 2
2,B2,3.27 log base 2
3,B3,1.73 log base 2

# Target: T1, G9a and GLP
# Experiment: Triple SILAC pull-down after UNC0638 treatment of 293T cells, DMSO/UNC0638 ratio of protein captured by 3×MBT;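 also: mass spectrometry (Q-Exactive) SILAC quantitation, DMSO/UNC0638 ratio computed after subtracting 3×MBTD355N mutant pull-down background, only proteins with at least twofold 3×MBT over mutant signal considered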
# Format: cell-based
# Design: cells were treated for 24 hours with UNC0638 at 2.5 μM or DMSO vehicle control; endogenous in cells; host or cells: HEK 293T
# Settings: SILAC ratio DMSO/UNC0638 of protein pulled down with 3xMBT; UNC0638 in heavy SILAC media
# Procedure: For UNC0638 treatments cells were treated for 24 hours with UNC0638 at 2.5 μM or DMSO vehicle control. One experiment treated cells in light media with UNC0638, the other treated cells in heavy media. Both experiments included cells in medium media treated with DMSO for negative control pull-down with 3×MBTD355N.
# UNC0638 treatment experiments used a Q-Exactive mass spectrometer (ThermoFisher Scientific). A 25 cm HPLC column with 3 μm Reliasil (Orochem) was used to separate peptides over a 4 hour gradient from 0 to 75% acetonitrile. Ions were generated using a custom nanospray source flowing at 250 nL/minute. Mass spectrometry settings were 70,000 MS1 resolution, data dependent selection of up to 20 precursor ions per cycle, dynamic exclusion of 30 seconds and isolation window of 2 m/z.
# For UNC0638 experiments the treated vs. untreated ratio was determined by subtracting the value from 3×MBTD355N prior to dividing values from the light and heavy channels. Only proteins showing a two-fold signal to background ratio (3×MBT/3×MBTD355N) were evaluated as potential G9a/GLP substrates.
row,Molecule,Relative to UNC0638 UNC Heavy
1,B1,0.05 log base 2
2,B2,−0.10 log base 2
3,B3,0.29 log base 2

# Same assay, conditions: SILAC ratio DMSO/UNC0638 of protein pulled down with 3xMBT; UNC0638 in light SILAC media
row,Molecule,Relative to UNC0638 UNC Light
1,B1,0.23 log base 2
2,B2,0.38 log base 2
3,B3,−0.01 log base 2

# Same assay, conditions: average of UNC Light and UNC Heavy experiments
row,Molecule,Relative to UNC0638 Average
1,B1,0.14 log base 2
2,B2,0.14 log base 2
3,B3,0.14 log base 2
